Experimental data: US20100190689

Legend:
Assay in all cases: filter
[1] = tested on: T1, GST-MBNL1-41-del105 deletion of C-terminal 105 aa (all four zinc fingers kept) (Homo sapiens), Q9NR56-5; conditions: C-terminal deletion has no significant influence on binding; same buffer
T1 sequence: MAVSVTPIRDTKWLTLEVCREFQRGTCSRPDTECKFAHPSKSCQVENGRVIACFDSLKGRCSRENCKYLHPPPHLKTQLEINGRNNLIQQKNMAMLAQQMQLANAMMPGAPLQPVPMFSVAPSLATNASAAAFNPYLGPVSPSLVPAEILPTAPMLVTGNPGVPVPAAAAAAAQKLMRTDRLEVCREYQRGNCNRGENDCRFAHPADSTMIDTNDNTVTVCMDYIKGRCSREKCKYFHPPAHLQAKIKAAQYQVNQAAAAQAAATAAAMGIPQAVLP

[2] = tested on: T2, MBNL1-41 full length, GST cleaved (Homo sapiens), Q9NR56-5; conditions: nitrocellulose filter; 50 mM Tris pH 8.0, 50 mM NaCl, 50 mM KCl, 1 mM Mg, 0.1 mM DTT; value stated for all forms tested
T2 sequence: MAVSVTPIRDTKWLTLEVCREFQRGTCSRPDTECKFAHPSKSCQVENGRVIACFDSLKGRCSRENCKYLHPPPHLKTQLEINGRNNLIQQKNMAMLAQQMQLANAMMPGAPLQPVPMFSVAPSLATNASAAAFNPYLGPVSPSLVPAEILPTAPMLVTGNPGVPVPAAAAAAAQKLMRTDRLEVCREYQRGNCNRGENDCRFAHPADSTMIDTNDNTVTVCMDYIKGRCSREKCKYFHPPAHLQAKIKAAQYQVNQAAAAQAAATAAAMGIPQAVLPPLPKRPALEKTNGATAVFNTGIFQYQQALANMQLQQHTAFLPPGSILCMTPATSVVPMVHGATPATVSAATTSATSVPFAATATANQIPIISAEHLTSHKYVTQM

[3] = tested on: T3, GST-MBNL1-41 full length (Homo sapiens), Q9NR56-5; conditions: GST has no significant influence on binding; same buffer
T3 sequence: T2 sequence

MBNL1-42 (Homo sapiens) = target: T4, MBNL1-42 (Homo sapiens) (UniProt Q9NR56); conditions: stated collectively for 41 and 42 kD isoforms
T4 sequence: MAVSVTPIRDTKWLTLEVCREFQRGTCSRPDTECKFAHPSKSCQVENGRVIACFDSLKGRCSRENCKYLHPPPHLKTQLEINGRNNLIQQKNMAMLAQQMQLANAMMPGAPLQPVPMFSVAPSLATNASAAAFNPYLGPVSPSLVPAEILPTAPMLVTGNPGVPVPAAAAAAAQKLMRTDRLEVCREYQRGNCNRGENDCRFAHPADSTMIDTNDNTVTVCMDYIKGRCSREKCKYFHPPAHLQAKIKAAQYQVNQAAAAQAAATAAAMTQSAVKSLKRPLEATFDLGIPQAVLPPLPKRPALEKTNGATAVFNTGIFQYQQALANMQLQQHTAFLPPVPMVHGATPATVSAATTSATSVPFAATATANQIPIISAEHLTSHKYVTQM

Measured: Kd

CUG [poly(CUG)109]
10 nM: [1] | [2] | [3] | MBNL1-42 (Homo sapiens)
